Among the data in publication PMC6291162 are response and fold change of binding against wild type values, retold here.

The target in assay [1] is proprietary Ral effector protein of the RalA G-LISA Activation Assay Kit. The assay can be described thus: ELISA-based assay. The following applies: Absorbances normalized to a no template control (NTC); mean of one experiment performed in triplicate; parent: 1.163.
Assay [2] has the same target. The assay can be described thus: ELISA; RalA G-LISA Activation Assay Kit (colorimetric); Ral effector protein on the Ral-BP binding plate; purified RALA incubated in the presence or absence of 15 uM GTP for 1.5 h at 25 °C, then 23.75 ng of RALA/GTP mixture applied; absorbances normalized to a no template control; one experiment in triplicate.

Consider “wild-type RALA (RAS-like small GTPase), 6-His-tagged recombinant protein (from UniProt P11233) D130G”, for which the response in assay [1] stood at 0.281 absorbance.

In the case of “wild-type RALA (RAS-like small GTPase), 6-His-tagged recombinant protein (from UniProt P11233) S157A”, the response in assay [1] is 1.83 absorbance.

With “wild-type RALA (RAS-like small GTPase), 6-His-tagged recombinant protein (from UniProt P11233) V25L”, the response in assay [1] was determined as 0.286 absorbance.

For “wild-type RALA (RAS-like small GTPase), 6-His-tagged recombinant protein (from UniProt P11233) V25M”, the response in assay [1] is 0.649 absorbance.

B1: RALA G23D, 6-His-tagged recombinant protein (natural protein)
chain: MAANKPKGQNSLALHKVIMVGSDGVGKSALTLQFMYDEFVEDYEPTKADSYRKKVVLDGEEVQIDILDTAGQEDYAAIRDNYFRSGEGFLCVFSITEMESFAATADFREQILRVKEDENVPFLLVGNKSDLEDKRQVSVEEAKNRAEQWNVNYVETSAKTRANVDKVFFDLMREIRARKMEDSKEKNGKKKRKSLAKRIRERCCIL
Take B1: in assay [2], the fold change of binding against wild type came out at 2 fold.
